Positions count from the first letter of the chain named. In names and notes the source's numbering stands. Several values for one entry are separate records, joined by “and”; a condition that tells them apart may be missing. Equal values may be shown once.
B1: wild-type Synechocystis fluorescence recovery protein (FRP), His6-tagged, residues 1–109 (natural protein, UniProt P74103 1-109, looked up)
chain: MLQTAEAPWSQAETQSAHALFRKAYQRELDGLLATVQAQASQITQIDDLWKLHDFLSAKRHEIDGKYDDRQSVIIFVFAQLLKEGLVQAEELTFLAADKQSKIKALARL
notes: fluorescence recovery protein (FRP) of Synechocystis, residues 1–109; cloned into pQE81L by BamHI/HindIII; Uncleavable tag; Dissociable dimer; also called FRPwt; wild-type FRP; not shown: His6, N-terminal, kept
B2: FRP–K102C mutant of Synechocystis FRP (natural protein, UniProt P74103 1-109, looked up)
chain: B1 chain with K102C
notes: fluorescence recovery protein (FRP) of Synechocystis with K102C, from M1 (N-terminus after cleavage of the tag: GPDPATM1LQ…); the wild-type construct is residues 1–109; pQE81M vector; the His6 tag is cleavable by 3C protease and leaves GPDPAT before M1
B3: FRPcc (L33C/I43C mutant of Synechocystis FRP) under reducing conditions (natural protein, UniProt P74103 1-109, looked up)
chain: B1 chain with L33C, I43C
notes: fluorescence recovery protein (FRP) of Synechocystis, residues 1–109, with L33C and I43C; made from the His6-tagged wild-type template; Cysteines reduced; dissociable dimer (dimeric above 10 µM load, partly dissociates on dilution); also called redFRPcc; not shown: His6, N-terminal, kept
B4: oxidized FRPcc (L33C/I43C mutant of Synechocystis FRP), disulfide-trapped dimer (natural protein, UniProt P74103 1-109, looked up)
chain: B1 chain with L33C, I43C
modifications: intersubunit disulfide bridges between C33 and C43
notes: fluorescence recovery protein (FRP) of Synechocystis, residues 1–109, with L33C and I43C; made from the His6-tagged wild-type template; Same polypeptide as m3, but covalently fixed as a dimer that cannot monomerize; 22 N-terminal residues of the construct are absent from 4JDX; also called oxFRPcc; oxFRPcc dimer; source: E. coli T7 SHuffle express, purified in the absence of reducing agents, …
B5: ∆NTE^O, orange form of Synechocystis OCP lacking the N-terminal extension (residues 1–20) (domain or fragment)
chain: VPATIARFSQLNAEDQLALIWFAYLEMGKTLTIAAPGAASMQLAENALKEIQAMGPLQQTQAMCDLANRADTPLCRTYASWSPNIKLGFWYRLGELMEQGFVAPIPAGYQLSANANAVLATIQGLESGQQITVLRNAVVDMGFTAGKDGKRIAEPVVPPQDTASRTKVSIEGVTNATVLNYMDNLNANDFDTLIELFTSDGALQPPFQRPIVGKENVLRFFREECQNLKLIPERGVTEPAEDGFTQIKVTGKVQTPWFGGNVGMNIAWRFLLNPEGKIFFVAIDLLASPKELLNFAR

Tests used:
[1] = target: ∆NTE^O, orange form of Synechocystis OCP lacking the N-terminal extension (residues 1–20) (Synechocystis sp. PCC 6803) (UniProt P74102); assay: cross-linking; FRP species, ∆NTE^O or their mixtures in 20 mM Hepes-NaOH pH 7.5, 150 mM NaCl, 0.1 mM EDTA; 0.1% glutaraldehyde, 25 min, room temperature; 15% SDS-PAGE (no reducing agents with oxFRPcc); details: scale: FRP chains per OCP
[2] = target: OCP(O) (Synechocystis sp.) (UniProt P74102); details: cited from earlier work
[3] = target: T1, ∆NTE^O, orange form of Synechocystis OCP lacking the N-terminal extension (residues 1–20) (Synechocystis sp. PCC 6803, UniProt P74102 21-317); assay: cross-linking; FRP species, ∆NTE^O or their mixtures in 20 mM Hepes-NaOH pH 7.5, 150 mM NaCl, 0.1 mM EDTA; 0.1% glutaraldehyde, 25 min, room temperature; 15% SDS-PAGE (no reducing agents with oxFRPcc); details: both partners purified
T1 construct: orange carotenoid protein (OCP) of Synechocystis sp; PCC 6803 without the NTE (residues 1–20); also called ∆NTE^O monomer
T1 sequence (looked up): B5 chain

[4] = target: the molecule itself; assay: SEC; FRP species alone, 1–40 µM per monomer, pre-incubated at least 20 min at room temperature; Superdex 200 Increase 10/300; 20 mM Tris-HCl pH 7.6, 150 mM NaCl, 0.1 mM EDTA, 3 mM βME (reducing); dimer to monomers
[5] = target: T2, OCP–F299C mutant of Synechocystis OCP (Synechocystis sp. PCC 6803, UniProt P74102 1-317, F299C); assay: cell-based or functional assay
T2 sequence (looked up): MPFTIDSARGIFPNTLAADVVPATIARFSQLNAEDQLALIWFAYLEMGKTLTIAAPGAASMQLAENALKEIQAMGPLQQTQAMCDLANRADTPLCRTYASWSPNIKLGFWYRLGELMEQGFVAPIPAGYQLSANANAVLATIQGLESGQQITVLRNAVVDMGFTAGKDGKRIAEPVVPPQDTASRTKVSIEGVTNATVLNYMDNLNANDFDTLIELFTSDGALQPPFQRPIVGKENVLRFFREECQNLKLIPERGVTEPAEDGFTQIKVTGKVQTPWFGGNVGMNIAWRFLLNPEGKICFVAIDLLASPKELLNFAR

[6] = target: B5
[7] = target: T2, OCP–F299C mutant of Synechocystis OCP; assay: cross-linking; disulfide trapping: OCP–F299C apoform mixed with FRP–F76C or FRP–K102C, oxidized in the dark by dialysis at 4 °C against GSH/GSSG (or 30–60 min with 10–50 mM H2O2); SDS-PAGE with or without 20 mM βME; details: both partners purified
[8] = target: T1, ∆NTE^O, orange form of Synechocystis …; assay: SEC; redFRPcc or FRP-L49E (50 µM) pre-incubated with OCP^AA (37 µM), ∆NTE^O (6 µM) or COCP (8 µM); Superdex 200 Increase 10/300; 280 nm and carotenoid-specific absorbance; details: both partners purified
[9] = target: T3, COCP, individual C-terminal domain of Synechocystis OCP (amino acids 165–317) (Synechocystis sp. PCC 6803, UniProt P74102 165-317); assay: as above; details: both partners purified
T3 construct: C-terminal domain of the orange carotenoid protein (OCP) of Synechocystis sp; PCC 6803, amino acids 165–317; also called CTD; individual CTD
T3 sequence (looked up): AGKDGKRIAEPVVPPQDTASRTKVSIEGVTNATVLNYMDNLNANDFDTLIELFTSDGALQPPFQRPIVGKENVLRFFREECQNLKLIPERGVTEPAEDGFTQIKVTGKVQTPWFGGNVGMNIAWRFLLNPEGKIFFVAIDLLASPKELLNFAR

[10] = target: T4, OCP^Y201A/W288A, constantly active mutant of Synechocystis orange carotenoid protein (Synechocystis sp. PCC 6803, UniProt P74102 1-317, Y201A | W288A); assay: as above; details: both partners purified
T4 construct: orange carotenoid protein (OCP) of Synechocystis sp; PCC 6803 with Y201A and W288A; also called OCP^AA
T4 sequence (looked up): T2 sequence (looked up) with Y201A, W288A, C299F

[11] = target: T1, ∆NTE^O, orange form of Synechocystis …; assay: SAXS; oxFRPcc alone (1.7 mg ml^−1) and the ∆NTE^O–oxFRPcc complex (2.41 mg ml^−1, ~40 µM); batch mode, 10 °C, SEC buffer with 3% glycerol, no reducing agents; details: both partners purified
[12] = target: the molecule itself; assay: as above
[13] = target: T5, oxidized FRPcc (L33C/I43C mutant of Synechocystis FRP), disulfide-trapped dimer (Synechocystis, UniProt P74103 1-109, L33C | I43C, intersubunit disulfide bridges between C33 and C43)
T5 sequence: B1 chain with L33C, I43C

## FRP homolog from Anabaena variabilis (natural protein)
[1]
  stoichiometry N: 1 and 2

## FRP (from UniProt P74103)
[2]
  Kd: 35000 nM

## B1
[3]
  stoichiometry N: 1 FRP chains per OCP (printed as OCP:FRP 1:1) and 2 FRP chains per OCP (printed as OCP:FRP 1:2)
[4]
  stoichiometry N: 2
[5]
  acceleration of the R–O conversion of photoactivated OCP–F299C at 25 °C: ~20 fold
[6]
  Kd: 190 nM

## B2
[7]
  stoichiometry N: 1 FRP chains per OCP (printed as 1:1)

## B3
[4]
  stoichiometry N: 2
[8]
  binding result: binds
[9]
  binding result: binds
[10]
  binding result: binds

## B4
[3]
  stoichiometry N: 2 FRP chains per OCP (printed as OCP:FRP 1:2) and 1 FRP chains per OCP (printed as OCP:FRP 2:2)
[11]
  stoichiometry N: 2 FRP chains per OCP (printed as 2:1)
[12]
  stoichiometry N: 2

## B5
[13]
  Kd: 220 nM

Source: publication PMC6155142, “OCP–FRP protein complex topologies suggest a mechanism for controlling high light tolerance in cyanobacteria” (Nature Communications, 2018)
